25 sequences from the supplement of paper PMC10201428 can be followed below.

± gives the standard deviation of the averaged measurements.

In the data set the test system is VchCAST RNA-guided transposition machinery (E. coli BL21(DE3) host, lacZ target). The data set can be described thus: relative integration efficiency (T-LR orientation) vs wild-type transposon end (log2 (normalized fold change)); transposon end mutated: right end (5 bp flank + 75 bp right end); higher = more efficient transposition. Put shortly:
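Each barcoded pool, 1549 left-end or 1849 right-end transposon variants in a pUC57 mini-transposon donor, went into E. coli BL21(DE3) with a T7-driven effector plasmid (CRISPR array, tniQ-cas8-cas7-cas6, tnsA-tnsB-tnsC). Plates contained 0.1 mM IPTG and were held at 37°C for 18 h. Input plasmids and genomic integration junctions were PCR-amplified and read by Illumina sequencing, with two biological output replicates and four reference barcodes. Relative integration efficiency is the fold change of output over input barcode abundance, normalised to the reference barcodes and log-transformed.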
Consider “ACATTTGTTGATACAACCATAAAATGATAATTAATAATCACCCATAAATTGATAATTATCACACCCATAAATTGATATTGCCTCTGATCATAGTCAGACCAACATTGCTACGACCCGTATTCGCACC”, for which the “relative integration efficiency (log2)” value came out at 0.894 ± 0.13.

In the case of “ACATTTGTTGATACAACCATAAAATGATAATTACACCCATAAATTGATAATTATCACACCCATAAATTGATATTGCCTCTGTTGACAGCTAGCTCAGTCCTAGGTATAATGCTAGCCGCACCGACAC”, the “relative integration efficiency (log2)” value is 0.147 ± 0.2.

Turning to “ACATTTGTTGATACAACCATAAAATGAATATTACACCCATAAATTGATAATTATCACACCCATAAATTGATATTGCCTCTGATCATAGTCAGACCAACATTGCTACGACCCGTATTCGCACCGACAC”, the “relative integration efficiency (log2)” value is -0.52 ± 0.4.

Take “ACATTTGTTGATACAACCATAAAATGAGAATTACACCCATAAATTGAGAATTATCACACCCATAAATTGAGATTGCCTCTGATCATAGTCAGACCAACATTGCTACGACCCGTATTCGCACCGACAC”: the “relative integration efficiency (log2)” value is -0.085 ± 0.14.

Take “ACATTTGTTGATACAACCATAAGTTGATATTTTCACCCATAAATTGATAATTATCACAACCATAAAGTGATATTTACTCTGATCATAGTCAGACCAACATTGCTACGACCCGTATTCGCACCGACAC”: the “relative integration efficiency (log2)” value was -0.211 ± 0.3.

As for “ACATTTGTTGATACAACCATAAAATGATAATTAATAATTATTTATAATCAGCAACTTAACACCCATAAATTGATAATTATCACACCCATAAATTGATATTGCCTCTGATCATAGTCAGACCAACATT”, the “relative integration efficiency (log2)” value was -0.417 ± 0.9.

For the sequence “ACATTTGTTGATACAACCATAAAATGATAATTACACCCATAAATTGATAATTATCACACCCATAAATTGATATTGCCTCTGATCATAGTCAGACAACCATAAAATGATAATTACCAAGCACCGACAC”, the “relative integration efficiency (log2)” value was -0.436 ± 0.47.

Take “ACATTTGTTCATACAACCCTAAAATGATAATTACACCCATAAATTGATAATTATCACACCCAATTTAACTATAACGCTCTGATCATAGTCAGACCAACATTGCTACGACCCGTATTCGCACCGACAC”: the “relative integration efficiency (log2)” value was -1.03 ± 0.5.

Take “ACATTTGTTGATACAACCATATAATGATAATAACACCAATAAAATGATAATTATCACACCCAATTTAACTATAACGCTCTGATCATAGTCAGACCAACATTGCTACGACCCGTATTCGCACCGACAC”: the “relative integration efficiency (log2)” value was found to be 1.887 ± 0.0053.

Turning to “ACATTTGTTGATACAACACGCAAATGATAATTACACCCATAAATTGATAATTATCACACCCATAAATTGATATTGCCTCTGATCATAGTCAGACCAACATTGCTACGACCCGTATTCGCACCGACAC”, the “relative integration efficiency (log2)” value was -4.89 ± 2.5.

For “ACATTTGGGGATACAACCATAAAATGATAATTACACCCATAAATTGATAATTATCACACCCATAAATTGATATTGCCTCTGATCATAGTCAGACCAACATTGCTACGACCCGTATTCGCACCGACAC”, the “relative integration efficiency (log2)” value is -5.49 ± 0.94.

For the sequence “ACATTTGTTGATACAACCATAAAATCATCATTACCCCCATAAATTGATAATTATCCCACCCAATTTAACTATAACGCTCTGATCATAGTCAGACCAACATTGCTACGACCCGTATTCGCACCGACAC”, the “relative integration efficiency (log2)” value worked out at 0.215 ± 0.23.

On to “ACATTTGTTGATACAACCATAAAATGATAATTACAACCATAAGTTGATATTTTTCACAACCATAAAGTGATATTTACTCTGATCATAGTCAGACCAACATTGCTACGACCCGTATTCGCACCGACAC”, for which the “relative integration efficiency (log2)” value stood at 0.666 ± 0.12.

On to “ACATTTGTTGATACAACCATAAAATGATAATTACTCTGATCACCCATAAATTGATAATTATCACACCCATAAATTGATATTGCCATAGTCAGACCAACATTGCTACGACCCGTATTCGCACCGACAC”, for which the “relative integration efficiency (log2)” value is 0.359 ± 0.11.

Consider “ACATTTGTTGATACACCCATAAATTGATAATTACACCCATAAATTGATAATTATCACAACCATAAAATGATAATTACTCTGATCATAGTCAGACCAACATTGCTACGACCCGTATTCGCACCGACAC”, for which the “relative integration efficiency (log2)” value was -0.749 ± 0.39.

As to “ACATTTGTTGATACAACCATAAAATGATATAATCACCCATAAATTGATATAATTCACACCCATAAATTGATAAACGCTCTGATCATAGTCAGACCAACATTGCTACGACCCGTATTCGCACCGACAC”, the “relative integration efficiency (log2)” value turned out to be 0.045 ± 0.14.

Regarding “ACATTTGTTGATACAACCATAAAATGATAATTACACCCATAAATTGATACGGCGACACAAACGCCCGGTCGCGGTAAGAGGATCATAGTCAGACCAACATTGCTACGACCCGTATTCGCACCGACAC”, the “relative integration efficiency (log2)” value was found to be 2.25 ± 0.24.

For “ACATTTGTTGATACAACCATAAAATGATAATTACACCCATAAATTGATACGGCTCACACCCATAAATTGATATTGCCTCTGATCATAGTCAGACCAACATTGCTACGACCCGTATTCGCACCGACAC”, the “relative integration efficiency (log2)” value is 0.173 ± 0.15.

For the sequence “ACATTTGTTGATACAACCATAAAATGATAATTACACCCATAAATTGATAATTATCACACCCATAAATTGATATTGCCTCTGATAACTTCGTATAGCATACATTATACGAAGTTATTCGCACCGACAC”, the “relative integration efficiency (log2)” value stood at 2.48 ± 0.26.

As to “ACATTTGTTGATACAACCATAAAATGATAATTAATAATTATTTATAATCAGCAACTTAACCACCCATAAATTGATAATTATCACACCCATAAATTGATATTGCCTCTGATCATAGTCAGACCAACAT”, the “relative integration efficiency (log2)” value was -1.2 ± 2.8.

Turning to “ACATTTGTTGATACAACCATAAAATGATAATTACACCCATAAATTGATAATTATCACACCCATAAATTGATATTGCCTCTGATCAGGCAGTGAGCGCAACGCAATTTAGTCAGACCAGCACCGACAC”, the “relative integration efficiency (log2)” value was -0.287 ± 0.16.

Take “ACATTTGTGGATACAACCATAAAATGATAATTACACCCATAAATGGATCATTATCACCCCCAATTTAACTATAACGCTCTGATCATAGTCAGACCAACATTGCTACGACCCGTATTCGCACCGACAC”: the “relative integration efficiency (log2)” value came out at 1.36 ± 0.19.

On to “ACATTTGTTGATACAACCAATAAATGATAATTACACCCATAAATTGATAATTGTGACACCGAATTTAACTATAACGCTCTGATCATAGTCAGACCAACATTGCTACGACCCGTATTCGCACCGACAC”, for which the “relative integration efficiency (log2)” value amounted to 2.09 ± 0.064.

On to “ACATTTGTTCATACAACCATAAAACGATAATTACACCCATAAATGGATCATTATCACACCCAATTTAACTATAACGCTCTGATCATAGTCAGACCAACATTGCTACGACCCGTATTCGCACCGACAC”, for which the “relative integration efficiency (log2)” value is -0.511 ± 0.011.

Take “ACATTTGTTGATACAACCATCAAATGGTAATTCCACCCATAAATTGATAATTATCACACCCAATTTAACTATAACGCTCTGATCATAGTCAGACCAACATTGCTACGACCCGTATTCGCACCGACAC”: the “relative integration efficiency (log2)” value is 0.505 ± 0.11.
